# Test results: the Human Domainome abundance scans (Beltran et al. 2025)
# ± gives the uncertainty stated by the source.
# B1: Transcriptional repressor p66-beta, residues 415 to 455; numbered along this chain, Q8WXI9 (parent)
# chain: VEPFVCAQCRTDFTPHWKQEKNGKILCEQCMTSNQKKALKA
# Variants of: B1
# Assay: abundance fitness (aPCA) (normalised: wild type 0, dead -1); higher = more abundant; growth selection in yeast, the domain comes from the species named
# Conditions: Homo sapiens
row,Variant,abundance fitness
1,M31L,-0.274 ± 0.11
2,M31E,-0.033 ± 0.085
3,M31D,-0.106 ± 0.11
4,M31A,-0.038 ± 0.07
5,M31Y,0.161 ± 0.19
6,M31S,-0.042 ± 0.12
7,M31R,-0.178 ± 0.062
8,M31V,-0.083 ± 0.069
9,M31K,-0.043 ± 0.14
10,M31T,-0.054 ± 0.12
11,M31P,-0.97 ± 0.29
12,M31G,0.01 ± 0.059
13,M31Q,0.05 ± 0.086
14,M31W,-0.041 ± 0.072
15,N34A,-0.076 ± 0.077
16,N34E,0.127 ± 0.073
17,N34C,-0.197 ± 0.091
18,G23H,0.385 ± 0.27
19,G23L,0.142 ± 0.14
20,G23R,0.003 ± 0.067
21,G23C,-0.137 ± 0.18
22,G23Q,0.335 ± 0.22
23,G23N,0.303 ± 0.18
24,G23T,0.045 ± 0.15

row,Variant,abundance fitness
1,G23V,0.092 ± 0.062
2,G23S,-0.104 ± 0.14
3,G23M,0.422 ± 0.21
4,G23D,0.343 ± 0.12
5,G23P,-0.016 ± 0.16
6,G23W,-0.392 ± 0.14
7,G23E,0.189 ± 0.083
8,C30V,-0.664 ± 0.13
9,C30R,-0.84 ± 0.12
10,C30E,-1.11 ± 0.2
11,C30A,-0.488 ± 0.13
12,C30D,-0.315 ± 0.19
13,C30Q,-0.795 ± 0.29
14,C30L,-0.786 ± 0.11
15,C30H,-0.672 ± 0.28
16,C30W,-1.07 ± 0.13
17,C30K,-0.635 ± 0.18
18,Q29M,-0.14 ± 0.095
19,Q29T,-0.253 ± 0.12
20,Q29S,-0.156 ± 0.093
21,Q29K,0.086 ± 0.11
22,Q29Y,-0.329 ± 0.32
23,Q29F,-0.153 ± 0.12
24,Q29P,-0.141 ± 0.12

row,Variant,abundance fitness
1,Q29L,-0.042 ± 0.087
2,Q29R,0.02 ± 0.058
3,Q29V,-0.389 ± 0.086
4,Q29H,0.333 ± 0.12
5,Q29E,-0.097 ± 0.14
6,Q29W,-0.3 ± 0.15
7,Q29I,-0.177 ± 0.16
8,Q29D,-0.083 ± 0.25
9,Q29G,-0.15 ± 0.07
10,Q29C,-0.491 ± 0.36
11,T32I,-0.033 ± 0.13
12,T32E,-0.186 ± 0.092
13,T32L,-0.312 ± 0.093
14,T32K,0.045 ± 0.26
15,T32W,-0.453 ± 0.08
16,T32F,-0.143 ± 0.25
17,T32A,-0.047 ± 0.061
18,T32P,-0.056 ± 0.14
19,T32Q,-0.173 ± 0.092
20,T32S,-0.312 ± 0.13
21,T32C,-0.177 ± 0.17
22,T32M,-0.145 ± 0.087
23,T32G,-0.121 ± 0.065
24,T32R,-0.145 ± 0.062

row,Variant,abundance fitness
1,T32V,-0.127 ± 0.06
2,I25A,-0.306 ± 0.07
3,I25C,-0.192 ± 0.12
4,I25S,-0.246 ± 0.12
5,I25P,0.069 ± 0.096
6,I25L,-0.158 ± 0.083
7,I25E,-0.118 ± 0.11
8,I25M,-0.081 ± 0.076
9,I25V,-0.407 ± 0.089
10,I25K,-0.026 ± 0.095
11,I25R,-0.168 ± 0.07
12,I25D,0.714 ± 0.27
13,I25F,-0.132 ± 0.14
14,I25Y,-0.307 ± 0.23
15,I25Q,-0.029 ± 0.15
16,I25T,-0.054 ± 0.086
17,I25W,-0.287 ± 0.1
18,L26H,0.12 ± 0.38
19,L26R,-0.145 ± 0.067
20,L26D,-0.295 ± 0.097
21,L26S,-0.077 ± 0.086
22,L26E,-0.194 ± 0.093
23,L26T,-0.39 ± 0.16
24,L26P,-0.125 ± 0.088

row,Variant,abundance fitness
1,L26N,-0.411 ± 0.22
2,L26Q,-0.075 ± 0.11
3,L26G,-0.304 ± 0.059
4,L26M,0.358 ± 0.37
5,L26F,0.003 ± 0.12
6,L26K,-0.218 ± 0.13
7,L26C,-0.075 ± 0.27
8,L26V,-0.196 ± 0.073
9,L26W,-0.113 ± 0.1
10,L26I,-0.004 ± 0.2
11,S33V,-0.104 ± 0.092
12,S33P,-0.011 ± 0.17
13,S33M,0.048 ± 0.088
14,S33D,0.002 ± 0.24
15,S33H,0.121 ± 0.49
16,S33Y,0.28 ± 0.2
17,S33R,-0.122 ± 0.072
18,S33L,-0.176 ± 0.089
19,S33C,-0.113 ± 0.2
20,S33K,-0.222 ± 0.2
21,S33F,-0.919 ± 0.46
22,S33Q,-0.017 ± 0.077
23,S33E,-0.007 ± 0.086
24,S33W,-0.379 ± 0.14

row,Variant,abundance fitness
1,S33A,-0.04 ± 0.072
2,S33T,-0.01 ± 0.087
3,E28Y,-0.16 ± 0.13
4,E28M,-0.159 ± 0.11
5,E28L,-0.181 ± 0.086
6,E28A,-0.122 ± 0.091
7,E28R,-0.343 ± 0.078
8,E28I,-0.418 ± 0.13
9,E28F,-0.356 ± 0.21
10,E28W,-0.307 ± 0.096
11,E28P,-0.178 ± 0.098
12,E28H,-0.066 ± 0.29
13,E28N,0.03 ± 0.13
14,E28T,0.029 ± 0.17
15,E28S,-0.006 ± 0.087
16,E28Q,-0.222 ± 0.12
17,E28K,-0.062 ± 0.17
18,E28C,0.074 ± 0.23
19,E28D,0.08 ± 0.17
20,E28G,-0.066 ± 0.072
21,K24S,-0.228 ± 0.095
22,K24T,-0.174 ± 0.14
23,K24R,0.028 ± 0.059
24,K24D,-0.166 ± 0.47

row,Variant,abundance fitness
1,K24M,-0.082 ± 0.11
2,K24H,0.013 ± 0.42
3,K24G,-0.02 ± 0.058
4,K24V,-0.148 ± 0.076
5,K24E,0.17 ± 0.094
6,K24L,-0.106 ± 0.07
7,K24C,-0.213 ± 0.15
8,K24A,-0.079 ± 0.073
9,K24Q,0.097 ± 0.094
10,C27S,-0.739 ± 0.13
11,C27D,-0.504 ± 0.3
12,C27V,-1.11 ± 0.23
13,C27M,-1.31 ± 0.42
14,C27T,-1.38 ± 0.32
15,C27W,-1.02 ± 0.18
16,C27A,-1.01 ± 0.18
17,C27Y,-0.444 ± 0.43
18,C27H,0.039 ± 0.18
19,C27E,-0.319 ± 0.27
20,C27L,-1.32 ± 0.27
21,C27Q,-0.79 ± 0.29
22,C27R,-1.06 ± 0.17
23,C27G,-1.05 ± 0.21
